{"source": "paper PMC12700550", "about": "“DLL4^+ neutrophils promote Notch1-mediated endothelial PANoptosis to exacerbate acute lung injury in sepsis” (The Journal of Clinical Investigation, 2025)", "molecules": {"B1": {"name": "eCIRP: extracellular cold-inducible RNA-binding protein; recombinant murine, produced in our laboratory (protein, UniProt P60824 1-172, looked up)", "Cold-inducible RNA-binding …": "MASDEGKLFVGGLSFDTNEQALEQVFSKYGQISEVVVVKDRETQRSRGFGFVTFENIDDAKDAMMAMNGKSVDGRQIRVDQAGKSSDNRSRGYRGGSAGGRGFFRGGRSRGRGFSRGGGDRGYGGGRFESRSGGYGGSRDYYASRSQGGSYGYRSSGGSYRDSYDSYATHNE"}}, "key": {"c-GSDMD": {"test_system": "c-GSDMD", "assay": "c/t GSDMD (pyroptosis) in PVECs cocultured with neutrophils, Western blot", "type": "cell-based, mouse", "settings": "for c/t GSDMD (Figure 4G): 10 μM peptide, 16 h, individual replicates", "procedure": "Wild-type PVECs (5 × 10^5) were cocultured with sorted DLL4^+ neutrophils (5 × 10^5) or DLL4^– neutrophils (5 × 10^5) and then treated with different dosages of peptides or 10 μM DAPT (Thermo Fisher Scientific), 10 μM NDI (GenScript), or 10 μM NDI scramble (GenScript). Notch1-knockdown PVECs (5 × 10^5) were cocultured with sorted DLL4^+ neutrophils (5 × 10^5). After 16 hours, neutrophils were washed away by PBS, and PVECs were collected for further experiments. Cell viability was evaluated by propidium iodide staining using the FITC Annexin V Apoptosis Detection Kit I (catalog 556547, BD Pharmingen). Cell death was quantified as the percentage of propidium iodide–positive cells by flow cytometry.\nPVECs and lung tissue were collected in previous steps. Whole-cell proteins were extracted, and the protein concentration was measured using an ABC protein assay kit (catalog 5000002, Bio-Rad). Proteins were separated using NuPAGE 4%–12% Bis-Tris gels (Invitrogen), transferred to PVDF membranes, and immunoblotted with the antibodies indicated in the figure legends according to the manufacturer’s recommendations. The ZBP1 antibody (catalog PA5-20455; 1:1,000) used in this study was obtained from Thermo Fisher Scientific, and the c-GSDMD (catalog 10137S; 1:250), GSDMD (catalog 39754S; 1:1000), c-caspase-3 (catalog 9661L; 1:250), caspase-3 (catalog 9662S; 1:1,000), p-MLKL (catalog 37333S; 1:250), MLKL (catalog 37705S; 1:1,000), N1ICD (c-Notch1) (catalog 4147S; 1:250), and Notch1 (catalog 3608S; 1:1,000) antibodies were obtained from Cell Signaling Technology. GAPDH (catalog 60004-1-Ig; 1:10,000) and β-actin (catalog A5441, Sigma-Aldrich; 1:5,000) were obtained from ProteinTech. After the blots were incubated with primary antibodies, the membranes were washed 3 times, and the blots were subsequently incubated with the corresponding fluorescent secondary antibody (LI-COR). Bands were detected using an Odyssey FC Dual-Mode Imaging system 2800 (LI-COR)."}, "ZBP1": {"test_system": "ZBP1", "assay": "ZBP1 protein in lungs of CLP mice, Western blot", "type": "in vivo, mouse", "settings": "10 mg/kg NDI, 20 h; for lung ZBP1 protein (Figure 5B): individual mice, 10 mg/kg", "procedure": "(§1) Sepsis was induced in mice by cecal ligation and puncture (CLP) as described previously ([45], [46]). Mice were anesthetized with isoflurane to a surgical plane and placed in a supine position. CLP was performed through a midline laparotomy. The abdomen was shaved and disinfected. Through a 2 cm midline incision, the cecum was exposed and then ligated with a 4-0 silk suture 1 cm proximal from the distal cecal extremity. For 20-hour CLP experiments, the cecum was punctured twice with a 22-gauge needle. A small amount of cecal content was extruded through both holes, and the ligated cecum was returned to the peritoneal cavity. The wound was closed in layers. For 10-day sepsis survival studies, the cecum was punctured once with a 22-gauge needle. A small amount of cecal content was extruded. Mice were allocated to the vehicle and adoptive transfer of DLL4^+ neutrophils or DLL4^– neutrophils groups. Adoptive transfer mice received a retro-orbital injection of 1 × 10^6 cells per mouse DLL4^+ neutrophils or DLL4^– neutrophils in […] phosphate-buffered saline (PBS) immediately after abdominal closure in both the 20-hour experiments and the survival study. Vehicle groups received an equivalent volume of PBS, while treatment groups received NDI 10 mg/kg in […] PBS via retro-orbital injection after CLP. This dose was chosen primarily on the basis of our laboratory’s prior experience, we have consistently used this dose in mouse CLP models with reproducible efficacy and without observable toxicity ([39], [44]). Sham-operated animals underwent a laparotomy without CLP. After closure, the mice received a subcutaneous injection of 0.5 mL of normal saline to overcome surgery-induced dehydration. […]\nPVECs and lung tissue were collected in previous steps. Whole-cell proteins were extracted, and the protein concentration was measured using an ABC protein assay kit (catalog 5000002, Bio-Rad). […] Bands were detected using an Odyssey FC Dual-Mode Imaging system 2800 (LI-COR)."}, "IL-6": {"test_system": "IL-6", "assay": "Lung IL-6 mRNA, CLP mice", "type": "in vivo, mouse", "settings": "20 h; for lung IL-6 mRNA (Figure 6G): 10 mg/kg NDI, vs sham, individual mice", "procedure": "as §1, with “dehydration. For 20-hour experiments, animals were not injected with antibiotics; however, for survival studies, animals were given 0.5 mg per kg body weight imipenem (lot 4D21K05, WG Critical Care LLC) subcutaneously in 0.5 mL saline once at the end of CLP. All mice were subcutaneously injected with a single dose of 0.1 mg/kg buprenorphine after CLP.” for “dehydration.”"}, "DLL3": {"test_system": "DLL3", "assay": "DLL3 mRNA in eCIRP-treated BMDNs, qPCR", "type": "cell-based, mouse", "settings": "for DLL3 mRNA: DLL3-CIRP", "procedure": "(§2) mRNA was extracted from lung tissues with TRIzol reagent (Invitrogen, Thermo Fisher Scientific). An equal amount ([…]) of mRNA was reverse-transcribed into cDNA using the reverse transcriptase enzyme (Invitrogen, Thermo Fisher Scientific). qPCR was performed from the diluted cDNA templates with forward and reverse primers (Supplemental Table 4) and SYBR Green PCR Master Mix (Applied Biosystems, Thermo Fisher Scientific) using an Applied Biosystems 7300 real-time PCR machine. Mouse β-actin served as an internal control gene for normalization. Relative expression of mRNA was represented as fold change in comparison with the sham group.\n(§3) BMDNs (1 × 10^6) were treated with eCIRP (1 μg/mL) for 12 hours, and DLL1, DLL3, and DLL4 were analyzed by qPCR."}, "DLL1": {"test_system": "DLL1", "assay": "DLL1 mRNA in eCIRP-treated BMDNs, qPCR", "type": "cell-based, mouse", "settings": "for DLL1 mRNA: DLL1-CIRP", "procedure": "as §2, §3"}}, "note": "Values joined by “and” are separate entries in the source; they are usually repeats but may differ in a detail not shown here. Identical values can stand only once."}
{"molecule": "ECAGSPCHNGGTCEDGI [NDI]", "values": [{"measurement": "effect on c-GSDMD", "setting": "c-GSDMD; 10 μM NDI, DLL4^+ neutrophil coculture", "value": "significantly reduced these markers of PANoptosis"}, {"measurement": "c/t GSDMD (Figure 4G)", "setting": "c-GSDMD; DLL4^+ neutrophil coculture", "value": "1.2879 and 0.9868 and 1.126 and 1.624 and 1.978 and 2.103 and 0.1622 and 0.328 and 1.184"}, {"measurement": "c/t GSDMD (Figure 4G)", "setting": "c-GSDMD; DLL4^– neutrophil coculture", "value": "0.692 and 1.126 and 1.001 and 1.013 and 0.9854 and 1.021"}, {"measurement": "lung ZBP1 protein (Figure 5B)", "setting": "ZBP1; DLL4^+ neutrophils + CLP", "value": "0.846 and 0.9823 and 0.8189 and 0.8666 and 0.6492 and 0.9798 and 0.8814"}, {"measurement": "effect on lung ZBP1 protein", "setting": "ZBP1; DLL4^+ neutrophils/sepsis", "value": "effectively decreased ZBP1 expression"}, {"measurement": "lung ZBP1 protein (Figure 5B)", "setting": "ZBP1; DLL4^– neutrophils + CLP", "value": "1.332 and 0.9583 and 0.9668"}, {"measurement": "effect on lung IL-6 mRNA", "setting": "IL-6; DLL4^+ neutrophil-injected CLP mice, 10 mg/kg", "value": "significantly decreased the mRNA expression of TNF-α, IL-6, and KC in lung tissues"}, {"measurement": "lung IL-6 mRNA (Figure 6G)", "setting": "IL-6; DLL4^+ neutrophils + CLP", "value": "1.4984 fold change and 1.1005 fold change and 1.349 fold change and 4.056 fold change and 2.97 fold change and 2.032 fold change and 0.08381 fold change and 1.663 fold change and 5.861 fold change and 2.132 fold change and 6.132 fold change"}, {"measurement": "lung IL-6 mRNA (Figure 6G)", "setting": "IL-6; DLL4^– neutrophils + CLP", "value": "2.369 fold change and 4.979 fold change and 4.806 fold change and 5.561 fold change and 5.531 fold change and 4.244 fold change and 1.214 fold change and 2.2297 fold change and 4.655 fold change"}]}
{"molecule": "B1", "values": [{"measurement": "effect on DLL3 expression", "setting": "DLL3; BMDNs, eCIRP 1 μg/mL, 12 h", "value": "no significant induction of DLL1 or DLL3"}, {"measurement": "DLL3 mRNA", "setting": "DLL3; replicate 1", "value": 0.2832}, {"measurement": "DLL3 mRNA", "setting": "DLL3; replicate 2", "value": 1.673}, {"measurement": "DLL3 mRNA", "setting": "DLL3; replicate 3", "value": 0.009923}, {"measurement": "DLL3 mRNA", "setting": "DLL3; replicate 4", "value": 0.01002}, {"measurement": "DLL3 mRNA", "setting": "DLL3; replicate 5", "value": 0.02772}, {"measurement": "DLL3 mRNA", "setting": "DLL3; replicate 6", "value": 0.1715}, {"measurement": "effect on DLL1 expression", "setting": "DLL1; BMDNs, eCIRP 1 μg/mL, 12 h", "value": "no significant induction of DLL1 or DLL3"}, {"measurement": "DLL1 mRNA", "setting": "DLL1; replicate 1", "value": 0.838}, {"measurement": "DLL1 mRNA", "setting": "DLL1; replicate 2", "value": 0.9002}, {"measurement": "DLL1 mRNA", "setting": "DLL1; replicate 3", "value": 1.276}, {"measurement": "DLL1 mRNA", "setting": "DLL1; replicate 4", "value": 1.001}, {"measurement": "DLL1 mRNA", "setting": "DLL1; replicate 5", "value": 0.5711}, {"measurement": "DLL1 mRNA", "setting": "DLL1; replicate 6", "value": 0.6454}, {"measurement": "DLL1 mRNA", "setting": "DLL1; replicate 7", "value": 0.3425}, {"measurement": "DLL1 mRNA", "setting": "DLL1; replicate 8", "value": 0.4208}]}
